Experimental data reported in US20130196406A1, “NOVEL PROTEIN-POLYMER NANOCAPSULES” (University of Connecticut, priority 2012, published 2013).
Several values for one entry are separate records, joined by “and”; a condition that tells them apart may be missing. Equal values may be shown once.

Tested on: T1, COc1ccccc1O
T1 construct: peroxidase-like activity with guaiacol/H2O2
Test: Peroxidase-like activity, Michaelis-Menten kinetics (guaiacol oxidation by H2O2, 470 nm), unmodified Hb
Format: biochemical, bovine
Conditions: other: Hb, 1 μM Hb, 2.5 mM guaiacol
Protocol: FIG. 5 provides Lineweaver-Burk plots for the peroxidase-like activity of Hb-PAA conjugates. A) Peroxidase-like activity for the 1 μM of Hb-PAA synthesized at pH 6.0. B) Peroxidase-like activity for 1 μM Hb-PAA synthesized at pH 7.0. All experiments were done in the presence of 1 μM Hb, 2.5 mM guaiacol and 1 mM H2O2.
Polyacrylic acid (PAA) (8000 Da) was purchased from sigma chemical Co (St. Louis, Mo.). The PAA stock solution was made by mixing 1.32 gm of 45% (w/w) PAA in 3 ml of 20 mM Na2HPO4 buffer, pH 7.2, and was further used for synthesis. Met-hemoglobin (Hb, bovine) was purchased from Sigma. Protein solutions were prepared in the respective buffers used for synthesis and the concentrations determined from the Soret absorbance of Hb using extinction co-efficient 303,956 M^−1 cm^−1 at 407 nm.
Hb activity was monitored by the addition of guaiacol (substrate) and hydrogen peroxide (oxidant), and formation of the colored product has been monitored by its absorption at 470 nm as a function of time (FIG. 4). […]
Hb activity was followed by literature method, with minor modifications. Product absorbance at 470 nm was monitored as a function time of after the addition of H2O2 (1 mM) to Hb (5 μM) and o-methoxyphenol (2.5 mM). Initial rates and Michaelis-Menten parameters were calculated from the kinetic data by following standard protocols. […]

Sequence of Met-hemoglobin (Hb, bovine), unmodified (Bos taurus) (chain, as listed by the source): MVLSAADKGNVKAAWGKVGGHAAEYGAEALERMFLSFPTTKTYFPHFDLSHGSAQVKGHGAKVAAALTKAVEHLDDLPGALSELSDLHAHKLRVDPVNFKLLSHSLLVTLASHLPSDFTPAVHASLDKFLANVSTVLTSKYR
Sequence of Met-hemoglobin (Hb, bovine), unmodified (Bos taurus) (chain, as listed by the source): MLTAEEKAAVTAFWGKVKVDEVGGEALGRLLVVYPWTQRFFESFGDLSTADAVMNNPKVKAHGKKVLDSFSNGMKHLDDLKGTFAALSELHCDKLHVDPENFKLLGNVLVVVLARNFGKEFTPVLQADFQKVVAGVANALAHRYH

Met-hemoglobin (Hb, bovine), unmodified (Bos taurus)
Km (1 mM H2O2): 500 µM and 507 µM | Vmax (1 mM H2O2, 120.0 °C): 0.0026 mM/s and 0.0021 mM/s
